Values joined by “and” are separate entries in the source; they are usually repeats but may differ in a detail not shown here. Identical values can stand only once. Like-named read-outs stand apart in the source and are kept apart here.
Key:
[1] = target: MHV-68 LANA DNA binding domain, mLANA_(124–314) (MHV-68); experiment: SAXS
[2] = target: MHV-68 LANA DNA binding domain, mLANA_(124–314) (MHV-68); experiment: SAXS; remark: listed apart in the source
[3] = target: MHV-68 LANA DNA binding domain, mLANA_(124–314) (MHV-68); experiment: SEC
[4] = target: KSHV LANA DNA binding domain, kLANA_(1019–1150) (KSHV); experiment: SEC; gel filtration in the presence of 1 M NaCl
[5] = target: KSHV LANA DNA binding domain, kLANA_(1019–1150) (KSHV); experiment: crystal structure
[6] = target: kLANA_(k1109E, A1121E) (KSHV); experiment: SEC
[7] = target: kLANA_(k1109E, A1121E) (KSHV); experiment: SEC; remark: listed apart in the source
[8] = target: kLANA_(1008–1150 (K1109E)) (KSHV); experiment: SAXS
[9] = target: kLANA_(1008–1150 (K1109E)) (KSHV); experiment: SEC
[10] = target: KSHV LANA DNA binding domain, kLANA_(1008–1150) (KSHV); experiment: SAXS
[11] = target: KSHV LANA DNA binding domain, kLANA_(1008–1150) (KSHV); experiment: SEC
[12] = target: mLANA DBD (Murine gammaherpesvirus 68 (MHV-68)) (UniProt O41974); experiment: ITC

“MHV-68 LANA DNA binding domain, mLANA_(124–314) (domain or fragment)” was tested, and the stoichiometry N [1] was 4, the stoichiometry N [2] was 8 and the stoichiometry N [3] was 2 and 4.

“KSHV LANA DNA binding domain, kLANA_(1019–1150) (domain or fragment)” was tested, and the stoichiometry N [4] was 2 and the stoichiometry N [5] was 2 and 4.

Work on “kLANA_(k1109E, A1121E) (domain or fragment)” yielded a stoichiometry N [6] of 4 and a stoichiometry N [7] of 2.

With “kLANA_(1008–1150 (K1109E)) (domain or fragment)” the percent of species present as bent tetramer [8] was 20%, the percent of species present as dimer [8] was less than 80% and the stoichiometry N [8] was 2 and 4. The stoichiometry N [9] was 2 and 4.

“KSHV LANA DNA binding domain, kLANA_(1008–1150) (domain or fragment)” was tested, and the percent of the mixture present as octamer with two kLBS1–2 DNA [10] was 74%, the stoichiometry N [10] was 8 and 4 and the stoichiometry N [11] was 2 and 4.

For kLBS1-2, the Kd [12] was 71.7 nM.
